Experimental data as given in patent US20260193326A1.
Substitutions are numbered along the chain they refer to.

B1: A4-D13 (protein)
chain: VQLQESGGGLVQPGGSLRLSCAASGSIFIINTMGWYRRAPGKQRELVAAVTRGGSTNYADSVKGRFTISRDNAKNTVYLQMNSLRPEDTAVYYCHVDEVRQSSWTTSNLWGQGTQVTVSSGGGGSGGGGSGGGGSVQLQESGGGLVQPGGSLRLSCAASGSIFSINTMGWYRQAPGKQRELVAAVTRGGSTNYADSVKGRFTISRDNAKNTVYLQMNSLRPEDTAVYYCHVDEVRQSSWTTSNLWGQGTQVTVSSGGGGSGGGGSGGGGSVQLQESGGGLAQAGGSLRLSCAASGRGFSINTMGWYRQAPGKQRELVAAVTRGGTTNYADSVKGRFTISRDNAKNTVYLQMNSLRPEDTAVYYCHVDEVRQSSWTTSNLWGQGTQVTVSSGGGGSGGGGSGGGGSVQLQESGGGLVQPGGSLRLSCAASGRAFSINTMGWYRQAPGKQRELVATVTRDGSTNYAGSVKGRFTISRDNAKNTVYLQMNSLRPEDTAVYYCHVDEVRQSSWTTSNLWGQGTQVTVSS
B2: A4-D12 (protein)
chain: VQLQESGGGLVQPGGSLRLSCAASGSIFSINTMGWYRQAPGKQRELVAAVTRGGSTNYADSVKGRFTISRDNAKNTVYLQMNSLRPEDTAVYYCHVDEVRQSSWTTSNLWGQGTQVTVSSGGGGSGGGGSGGGGSVQLQESGGGLAQAGGSLRLSCAASGRGFSINTMGWYRQAPGKQRELVAAVTRGGTTNYADSVKGRFTISRDNAKNTVYLQMNSLRPEDTAVYYCHVDEVRQSSWTTSNLWGQGTQVTVSSGGGGSGGGGSGGGGSVQLQESGGGLVQPGGSLRLSCAASGRAFSINTMGWYRQAPGKQRELVATVTRDGSTNYAGSVKGRFTISRDNAKNTVYLQMNSLRPEDTAVYYCHVDEVRQSSWTTSNLWGQGTQVTVSSGGGGSGGGGSGGGGSVQLQESGGGLVQPGGSLRLSCAASGSIFIINTMGWYRRAPGKQRELVAAVTRGGSTNYADSVKGRFTISRDNAKNTVYLQMNSLRPEDTAVYYCHVDEVRQSSWTTSNLWGQGTQVTVSS
B3: A4-D10 (protein)
chain: VQLQESGGGLAQAGGSLRLSCAASGRGFSINTMGWYRQAPGKQRELVAAVTRGGTTNYADSVKGRFTISRDNAKNTVYLQMNSLRPEDTAVYYCHVDEVRQSSWTTSNLWGQGTQVTVSSGGGGSGGGGSGGGGSVQLQESGGGLVQPGGSLRLSCAASGRAFSINTMGWYRQAPGKQRELVATVTRDGSTNYAGSVKGRFTISRDNAKNTVYLQMNSLRPEDTAVYYCHVDEVRQSSWTTSNLWGQGTQVTVSSGGGGSGGGGSGGGGSVQLQESGGGLVQPGGSLRLSCAASGSIFIINTMGWYRRAPGKQRELVAAVTRGGSTNYADSVKGRFTISRDNAKNTVYLQMNSLRPEDTAVYYCHVDEVRQSSWTTSNLWGQGTQVTVSSGGGGSGGGGSGGGGSVQLQESGGGLVQPGGSLRLSCAASGSIFSINTMGWYRQAPGKQRELVAAVTRGGSTNYADSVKGRFTISRDNAKNTVYLQMNSLRPEDTAVYYCHVDEVRQSSWTTSNLWGQGTQVTVSS
B4: A4-D11 (protein)
chain: B3 chain with A11V, A13P, R161S, A162I, T184A, D188G, G195D, I432S, S434V

The binders below were run against AAV5 (adeno-associated virus serotype 5) (assay: SPR, AAV on CM5 chip).
For B1, the Kd was 0.701 nM, the koff was 1.31e-05 s⁻¹ and the kon was 18700 M⁻¹ s⁻¹. In the case of B2, the Kd is reported as 0.44 nM, the koff is reported as 1.7e-05 s⁻¹ and the kon is reported as 38600 M⁻¹ s⁻¹. B3 was tested, and the Kd was 0.481 nM, the koff was 8.3e-06 s⁻¹ and the kon was 17300 M⁻¹ s⁻¹. Work on B4 yielded a Kd of 1.15 nM, a koff of 1.4e-05 s⁻¹ and a kon of 12200 M⁻¹ s⁻¹.

These binders were tested against AAV8 (adeno-associated virus serotype 8) (assay: SPR, AAV on CM5 chip).
In the case of B1, the Kd is reported as 0.355 nM, the koff is reported as 6.9e-06 s⁻¹ and the kon is reported as 19400 M⁻¹ s⁻¹. For B2, the Kd was 0.262 nM, the koff was 6.5e-06 s⁻¹ and the kon was 24800 M⁻¹ s⁻¹. In the case of B3, the Kd is reported as 0.542 nM, the koff is reported as 1.66e-05 s⁻¹ and the kon is reported as 30700 M⁻¹ s⁻¹. In the case of B4, the Kd is reported as 0.319 nM, the koff is reported as 1.5e-05 s⁻¹ and the kon is reported as 47000 M⁻¹ s⁻¹.

The binders below were run against AAV9 (adeno-associated virus serotype 9) (assay: SPR, AAV on CM5 chip).
B1 showed a Kd of 0.0471 nM, a koff of 2.6e-06 s⁻¹ and a kon of 55200 M⁻¹ s⁻¹. For B2, the Kd was 0.0555 nM, the koff was 3e-06 s⁻¹ and the kon was 54000 M⁻¹ s⁻¹. Binder B3 has a Kd of 0.0611 nM, a koff of 1.9e-06 s⁻¹ and a kon of 31100 M⁻¹ s⁻¹. In the case of B4, the Kd is reported as 0.181 nM, the koff is reported as 4.8e-06 s⁻¹ and the kon is reported as 26500 M⁻¹ s⁻¹.
